Laboratory results reported in patent publication US20090324600A1 (PIERRE FABRE MEDICAMENT, published 2009).
Each block holds one molecule with its values, some of them ahead of it.

Experiments:
[1] = biological target: integrin α3β1 (UniProt P26006); assay: cell-based or functional assay
[2] = biological target: integrin α6β4 (UniProt P23229); assay: cell-based or functional assay
[3] = biological target: T1, murine CD151 (murine, UniProt O35566 1-253); assay: Western blot of murine lung, pancreas and colon tissue lysates (10 µg total protein), non-reductive conditions
T1 construct: Endogenous protein in mouse tissue lysates on a Western blot; also called murine receptor
T1 sequence (looked up): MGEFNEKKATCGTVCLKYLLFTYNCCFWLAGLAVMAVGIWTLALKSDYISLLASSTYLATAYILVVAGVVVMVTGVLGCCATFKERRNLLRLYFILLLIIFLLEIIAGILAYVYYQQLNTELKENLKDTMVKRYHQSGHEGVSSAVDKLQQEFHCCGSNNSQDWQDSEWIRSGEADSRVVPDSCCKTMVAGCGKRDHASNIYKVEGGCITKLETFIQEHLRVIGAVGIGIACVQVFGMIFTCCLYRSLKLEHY
Experimental: The specificity of the TS151 and TS151r antibodies was evaluated by Western blot. Lysates of human and murine lung, pancreas and colon tissues (Biochain, 10 μg of total proteins) and also increasing amounts of HT-29 cell lysate (10, 20 and 50 μg of total proteins) were placed on a 4-12% acrylamide gel (BioRad). After electrophoresis (non-reductive conditions), the proteins were transferred onto nitrocellulose membranes. The transfer membranes were then incubated with the purified TS151 and TS151r antibodies and then with a rabbit anti-mouse Ig polyclonal antibody coupled to peroxidase (GE Healthcare) before ECL-type visualisation.

integrin α3β1, sequence (P26006 33-1051, chain 1 of 2): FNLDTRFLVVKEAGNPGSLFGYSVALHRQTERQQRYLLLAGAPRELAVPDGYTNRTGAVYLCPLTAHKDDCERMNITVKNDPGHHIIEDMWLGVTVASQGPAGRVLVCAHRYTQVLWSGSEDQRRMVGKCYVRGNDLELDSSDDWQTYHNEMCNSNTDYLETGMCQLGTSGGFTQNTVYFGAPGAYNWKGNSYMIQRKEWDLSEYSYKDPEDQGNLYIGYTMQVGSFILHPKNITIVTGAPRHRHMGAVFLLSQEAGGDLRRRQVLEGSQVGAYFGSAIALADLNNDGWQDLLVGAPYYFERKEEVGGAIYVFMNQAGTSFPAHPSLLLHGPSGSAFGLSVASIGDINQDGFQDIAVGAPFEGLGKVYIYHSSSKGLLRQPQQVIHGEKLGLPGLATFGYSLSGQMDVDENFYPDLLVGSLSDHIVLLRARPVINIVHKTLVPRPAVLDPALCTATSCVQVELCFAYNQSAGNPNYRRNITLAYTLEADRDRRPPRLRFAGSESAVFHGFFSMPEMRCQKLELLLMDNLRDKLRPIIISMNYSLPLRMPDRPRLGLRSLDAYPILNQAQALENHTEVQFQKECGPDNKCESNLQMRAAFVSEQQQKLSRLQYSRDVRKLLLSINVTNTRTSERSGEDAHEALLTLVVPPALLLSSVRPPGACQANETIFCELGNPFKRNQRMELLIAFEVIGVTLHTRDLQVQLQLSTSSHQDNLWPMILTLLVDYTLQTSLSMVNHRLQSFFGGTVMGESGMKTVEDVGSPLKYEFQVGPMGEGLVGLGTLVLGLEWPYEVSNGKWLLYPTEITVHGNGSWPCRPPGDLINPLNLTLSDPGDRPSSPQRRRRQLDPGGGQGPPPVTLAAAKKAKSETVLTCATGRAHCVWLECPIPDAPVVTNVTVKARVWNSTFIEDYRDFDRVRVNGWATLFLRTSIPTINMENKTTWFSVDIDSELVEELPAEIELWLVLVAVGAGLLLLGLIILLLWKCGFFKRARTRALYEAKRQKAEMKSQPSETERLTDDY
integrin α3β1, sequence (P05556 21-798, chain 2 of 2, further chain): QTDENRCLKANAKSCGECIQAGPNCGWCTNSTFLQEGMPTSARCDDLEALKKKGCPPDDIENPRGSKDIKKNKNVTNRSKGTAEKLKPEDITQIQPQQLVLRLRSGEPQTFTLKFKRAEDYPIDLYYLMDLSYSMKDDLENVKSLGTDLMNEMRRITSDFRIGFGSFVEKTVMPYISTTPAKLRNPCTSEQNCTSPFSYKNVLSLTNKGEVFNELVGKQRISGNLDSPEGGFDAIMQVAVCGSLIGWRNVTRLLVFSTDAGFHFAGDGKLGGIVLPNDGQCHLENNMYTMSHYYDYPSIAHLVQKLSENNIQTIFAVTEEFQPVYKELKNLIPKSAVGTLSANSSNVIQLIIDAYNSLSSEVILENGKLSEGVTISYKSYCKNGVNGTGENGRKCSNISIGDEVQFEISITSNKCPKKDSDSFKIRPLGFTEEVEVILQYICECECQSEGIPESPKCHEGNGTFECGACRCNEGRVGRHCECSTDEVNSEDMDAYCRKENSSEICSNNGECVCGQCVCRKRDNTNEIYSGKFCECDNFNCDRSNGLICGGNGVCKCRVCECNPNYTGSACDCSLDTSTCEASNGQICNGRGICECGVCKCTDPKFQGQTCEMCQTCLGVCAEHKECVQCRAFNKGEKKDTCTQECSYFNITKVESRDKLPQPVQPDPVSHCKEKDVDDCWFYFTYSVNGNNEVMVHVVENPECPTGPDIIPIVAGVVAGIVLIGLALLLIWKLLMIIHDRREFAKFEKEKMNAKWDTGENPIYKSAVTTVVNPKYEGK
integrin α6β4, sequence (P23229 24-1130 limits assumed, chain 1 of 2): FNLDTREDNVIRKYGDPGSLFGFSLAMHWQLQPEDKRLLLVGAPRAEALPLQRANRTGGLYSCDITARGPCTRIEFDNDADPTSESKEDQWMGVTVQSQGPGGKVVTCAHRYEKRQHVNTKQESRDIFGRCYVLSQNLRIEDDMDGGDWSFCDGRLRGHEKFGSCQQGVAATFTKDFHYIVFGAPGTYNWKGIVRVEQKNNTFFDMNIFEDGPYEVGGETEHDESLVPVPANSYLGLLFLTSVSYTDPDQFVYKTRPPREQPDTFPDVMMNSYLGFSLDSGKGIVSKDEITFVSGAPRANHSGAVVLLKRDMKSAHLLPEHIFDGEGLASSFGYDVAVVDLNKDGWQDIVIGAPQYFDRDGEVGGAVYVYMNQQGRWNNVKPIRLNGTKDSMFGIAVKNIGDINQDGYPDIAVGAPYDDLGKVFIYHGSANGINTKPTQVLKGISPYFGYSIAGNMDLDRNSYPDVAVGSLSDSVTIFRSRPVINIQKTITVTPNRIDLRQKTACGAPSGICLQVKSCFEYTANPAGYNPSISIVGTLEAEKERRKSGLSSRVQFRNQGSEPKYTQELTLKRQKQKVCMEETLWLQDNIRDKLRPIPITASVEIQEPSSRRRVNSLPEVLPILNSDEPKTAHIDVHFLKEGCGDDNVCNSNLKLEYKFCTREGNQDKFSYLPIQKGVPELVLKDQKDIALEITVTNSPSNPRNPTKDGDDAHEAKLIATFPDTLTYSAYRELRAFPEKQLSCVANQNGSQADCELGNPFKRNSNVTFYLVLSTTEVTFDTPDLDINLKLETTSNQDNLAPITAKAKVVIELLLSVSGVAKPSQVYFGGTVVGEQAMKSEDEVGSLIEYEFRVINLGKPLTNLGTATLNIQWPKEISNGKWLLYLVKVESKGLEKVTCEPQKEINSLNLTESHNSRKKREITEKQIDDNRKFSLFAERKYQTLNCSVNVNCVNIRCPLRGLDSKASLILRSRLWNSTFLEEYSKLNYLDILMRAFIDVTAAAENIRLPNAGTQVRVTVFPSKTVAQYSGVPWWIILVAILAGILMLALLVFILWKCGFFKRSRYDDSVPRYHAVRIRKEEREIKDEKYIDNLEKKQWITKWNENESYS
integrin α6β4, sequence (P16144 28-1822 limits assumed, chain 2 of 2, further chain): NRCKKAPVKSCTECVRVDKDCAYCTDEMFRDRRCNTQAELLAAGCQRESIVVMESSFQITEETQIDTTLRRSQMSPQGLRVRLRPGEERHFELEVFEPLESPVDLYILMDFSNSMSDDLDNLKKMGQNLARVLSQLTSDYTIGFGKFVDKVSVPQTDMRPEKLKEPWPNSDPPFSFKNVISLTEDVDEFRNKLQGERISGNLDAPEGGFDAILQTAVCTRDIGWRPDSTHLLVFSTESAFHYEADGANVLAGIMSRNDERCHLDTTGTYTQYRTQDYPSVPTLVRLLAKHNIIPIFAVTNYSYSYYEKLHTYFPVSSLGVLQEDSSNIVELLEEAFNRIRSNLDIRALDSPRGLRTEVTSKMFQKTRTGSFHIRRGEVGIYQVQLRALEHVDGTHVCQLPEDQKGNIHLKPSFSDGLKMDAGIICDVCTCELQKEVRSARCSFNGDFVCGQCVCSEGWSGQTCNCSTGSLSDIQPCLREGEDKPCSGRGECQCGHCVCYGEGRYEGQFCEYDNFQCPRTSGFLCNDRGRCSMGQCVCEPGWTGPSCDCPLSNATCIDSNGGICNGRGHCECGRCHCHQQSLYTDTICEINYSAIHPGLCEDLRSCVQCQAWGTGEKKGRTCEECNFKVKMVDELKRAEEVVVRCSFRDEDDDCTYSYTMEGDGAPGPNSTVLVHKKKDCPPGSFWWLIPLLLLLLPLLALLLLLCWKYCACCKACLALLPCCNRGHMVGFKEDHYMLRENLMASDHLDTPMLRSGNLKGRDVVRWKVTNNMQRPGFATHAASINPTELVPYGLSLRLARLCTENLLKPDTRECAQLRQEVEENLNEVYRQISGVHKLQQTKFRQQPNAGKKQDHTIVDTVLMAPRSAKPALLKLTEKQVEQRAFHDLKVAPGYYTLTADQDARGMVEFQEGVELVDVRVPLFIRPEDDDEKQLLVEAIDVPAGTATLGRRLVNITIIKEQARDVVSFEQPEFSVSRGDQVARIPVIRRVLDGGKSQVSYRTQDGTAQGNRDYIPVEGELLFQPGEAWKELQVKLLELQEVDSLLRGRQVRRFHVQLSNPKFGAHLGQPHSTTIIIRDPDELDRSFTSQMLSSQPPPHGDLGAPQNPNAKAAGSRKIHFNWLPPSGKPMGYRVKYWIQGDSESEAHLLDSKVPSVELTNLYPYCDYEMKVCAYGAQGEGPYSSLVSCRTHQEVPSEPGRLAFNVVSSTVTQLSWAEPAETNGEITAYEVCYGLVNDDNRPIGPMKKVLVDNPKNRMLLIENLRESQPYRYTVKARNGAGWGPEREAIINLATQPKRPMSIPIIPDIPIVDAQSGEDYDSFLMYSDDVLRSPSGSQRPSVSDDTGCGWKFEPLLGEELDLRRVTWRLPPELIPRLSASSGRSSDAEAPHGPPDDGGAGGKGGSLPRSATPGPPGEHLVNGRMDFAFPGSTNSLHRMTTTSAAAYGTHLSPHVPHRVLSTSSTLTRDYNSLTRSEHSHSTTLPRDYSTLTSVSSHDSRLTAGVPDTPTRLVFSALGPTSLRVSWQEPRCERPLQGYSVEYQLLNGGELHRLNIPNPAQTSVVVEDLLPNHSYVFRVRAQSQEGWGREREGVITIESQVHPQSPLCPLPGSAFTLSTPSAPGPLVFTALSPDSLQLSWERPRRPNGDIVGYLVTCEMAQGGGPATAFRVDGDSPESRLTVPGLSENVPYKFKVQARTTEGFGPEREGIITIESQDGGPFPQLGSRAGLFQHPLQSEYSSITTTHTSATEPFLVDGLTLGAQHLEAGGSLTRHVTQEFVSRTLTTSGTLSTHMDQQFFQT

Molecule: anti-integrin β4 antibody ASC-3
inhibition of adhesion of A549 cells on laminin 5 after 1 hour, ASC-3 in association with P1B5 [2]: 70%

B1: TS151r antibody (antibody, mouse IgG1, V domains shown)
VH: QVQLQQPGSVVVRPGASVKLSCKASGYTFTSSWMHWAKQRPGQGLEWIGQIHPNSGNTNYNEKFKVKATLTIDTSSSTAYVDLNSLTSGDSAVYYCARGDDAYYSGLYAMDYWGQGTSVTVSS
VL: DIVLTQSPASLAVSLGQRATISCRASQSVSTSRYSYMHWYQQIQGQPPKLLIKYASNLESGVPARFSGSGSGTDFTLNIHPVEEEDTATYHCQHSWEIPYTFGGGTTLEIK
notes: Murine monoclonal from a hybridoma
binding result [3]: no binding

The remaining lines, values ahead:

inhibition of adhesion of A549 cells on laminin 5, 15 minutes [1]: > 90% | inhibition of adhesion of A549 cells on laminin 5, 1 hour [1]: 20%
Molecule: anti-integrin α3 antibody P1B5

inhibition of adhesion of A549 cells on laminin 5 after 1 hour, NKI-Go3 in association with P1B5 [2]: > 90%
Molecule: anti-integrin α6 antibody NKI-Go3

binding result [3]: no binding
B2: TS151 antibody (antibody, mouse IgG1, V domains shown)
VH: QIQLVQSGPELKKPGETVKISCKASGYTFTDYSMHWVKQAPGKGLKWMGWINTETGEPTYTDDFKGRFAFSLETSANTAYLRINNLKNEDTATYFCARREYGNYYGMEYWGQGTSVTVSS
VL: DIVLTQSPASLAVSLGQRATISCRASQSVSTSTFSYIHWYQQKPGQPPKLLIKSASNLESGVPARFSGSGSGTDFTLTIHPVEEEDTATYFCQHSWEIPLTFGAGTKLELK
notes: Murine monoclonal from a hybridoma; also called anti-CD151 antibody TS151
